{"source": "FireProtDB (doi:10.1016/s0301-4622(99)00119-2)", "settings": "Bos taurus, pH 7, Absorbance, Sodium phosphate 100 mM", "note": "Where “and” joins values, the source holds several entries; their conditions need not be identical. Equal values may be shown once."}
{"substance": "Cytochrome b wild type, P00157", "values": [{"measurement": "denaturant midpoint (higher = more stable)", "setting": "25 °C, Urea", "result": 6.8, "unit": "M"}, {"measurement": "unfolding enthalpy (van 't Hoff)", "setting": "Thermal", "result": "90.1 kcal/mol and 85.6 kcal/mol"}]}
